Data taken from patent US20250000992A1 (Eli Lilly, published 2025).

Biological target: T1, Sortilin receptor on HEK293 cells (UniProt Q99523 78-831, limits assumed)
T1 construct: whole, on cells
Experiment: +/- matrix drawn left of the bar chart (Cathepsin D ELISA, HEK293 cells); the binding assay behind the marks is not given

B1: His-PGRN (ligand)
single chain: HHHHHHGGGGQGGGGQGGGGQENLYFQSGGGGQTRCPDGQFCPVACCLDPGGASYSCCRPLLDKWPTTLSRHLGGPCQVDAHCSAGHSCIFTVSGTSSCCPFPEAVACGDGHHCCPRGFHCSADGRSCFQRSGNNSVGAIQCPDSQFECPDFSTCCVMVDGSWGCCPMPQASCCEDRVHCCPHGAFCDLVHTRCITPTGTHPLAKKLPAQRTNRAVALSSSVMCPDARSRCPDGSTCCELPSGKYGCCPMPNATCCSDHLHCCPQDTVCDLIQSKCLSKENATTDLLTKLPAHTVGDVKCDMEVSCPDGYTCCRLQSGAWGCCPFTQAVCCEDHIHCCPAGFTCDTQKGTCEQGPHQVPWMEKAPAHLSLPDPQALKRDVPCDNVSSCPSSDTCCQLTSGEWGCCPIPEAVCCSDHQHCCPQGYTCVAEGQCQRGSEIVAGLEKMPARRASLSHPRDIGCDQHTSCPVGQTCCPSLGGSWACCQLPHAVCCEDRQHCCPAGYTCNVKARSCEKEVVSAQPATFLARSPHVGVKDVECGEGHFCHDNQTCCRDNRQGWACCPYRQGVCCADRRHCCPAGFRCAARGTKCLRREAPRWDAPLRDPALRQLL
notes: 55; also called His tagged PGRN; His-Tagged PGRN
binding result: binds
